According to patent US20090181444A1, “MODIFIED CARBOHYDRATE PROCESSING ENZYME” (priority 2002, published 2009):

Tests used:
Format in all cases: biochemical
[1] = Hydrolysis of 4-methylumbelliferyl-β-D-glucoside, initial rates; details: 4-MUGlc, 80° C., pH 6.5
Method: (§1) Parameters were determined by the method of initial rates. Activity was measured in time course assays of the hydrolysis of 4-methylumbelliferyl-β-D-glycosides (β-D-gluco, β-D-galacto, β-D-fuco, β-D-manno, β-D-xylo, β-D-glucurono) at 5-15 concentrations (0.001-1.5 mM) incubated at 80° C. in 50 mM sodium phosphate buffer, pH 6.5. Reactions were terminated at 2, 5, 10, 15 min by the addition of 100 μl of ice cold 1M NazCO3, pH 10 and analyzed (Labsystems Fluoroscan Ascent plate reader, […]). KM and kcat were derived by fitting the initial rates to hyperbolic Michaelis-Menten curves using GraFit 4 (Erithacus Software Ltd, Staines, UK).
(§2) Determination of the Michaelis-Menten parameters for the WT and mutant enzymes was performed at pH 6.5 at 80° C. for a broad range of representative, fluorophore-containing 4-methylumbelliferyl glycoside substrates, which allowed activities to be determined with a high degree of sensitivity (Table). Under these optimized assay conditions, the glucoside (Glc), galactoside (Gal) and fucoside (Fuc) substrates were hydrolysed well by SSβG-WT, but the xyloside (Xyl) substrate was hydrolysed relatively poorly (approx. 3% of turnover as determined by kcat compared with β-D-glucoside). […] In all cases the absolute D-stereospecificity and β-stereoselectivity of SSβG was maintained and no activity was detected towards L- or α-glycoside substrates.

[2] = Hydrolysis of 4-methylumbelliferyl-β-D-fucoside, initial rates; details: 4-MUFuc, 80° C., pH 6.5
Method: as §1, §2

[3] = Hydrolysis of 4-methylumbelliferyl-β-D-mannoside, initial rates; details: 80° C., pH 6.5
Method: as §1, §2

[4] = Hydrolysis of 4-methylumbelliferyl-β-D-xyloside, initial rates; details: 80° C., pH 6.5
Method: as §1, §2

[5] = Parallel one-pot glycoside synthesis (transglycosylation to MeOH); details: 50° C., 1:9 MeOH:phosphate buffer pH 6.5
Method: Enzyme (WT, […] or E432C, 1 mg) was added to a mixed solution (1 mL) of para-nitrophenyl (pNP) β-D-manno-, galacto-, gluco- and xylo- pyranosides (0.03 mmol of each) in 1:9 MeOH:phosphate buffer (pH 6.5) and incubated at 50° C. for 45 min (WT), 4 h (WT), 8 h (W433C, E432C). After this time the solutions were extracted with EtOAc to remove para-nitrophenol and passed through short Sephadex and Celite:Graphite (1:1) columns to remove protein, pNP-glycoside and remaining para-nitrophenol. Solvent was removed and product mixtures were analysed by ^1H NMR and ESMS. Yields based on donor were calculated from integration of anomeric proton resonances in ^1H NMR (D2O, 500 MHz): α-Gal (δ 5.12, d, […]), α-Glc (δ 5.08, d, 3.8 Hz), α-Xyl (δ 5.04, d, J=3.4 Hz), α-Man (δ 5.03, d, J=1.8 Hz), β-Man (δ 4.75, s), β-Glc (δ 4.49, d, J=8.0 Hz), P-Gal (δ 4.45, d, 7.9 Hz), Me-β-Man (δ 4.44, s), β-Xyl (δ 4.42, d, J=7.8 Hz), Me-β-Glc (δ 4.23, d, J 8.1 Hz), Me-β-Xyl (δ 4.18, d, J=7.8 Hz), Me-β-Gal (δ 4.17, d, J=8.0 Hz).
Scheme 1: Parallel glycoside syntheses using SSβG-WT, -E432C and -W433C as catalysts. […] Such balanced libraries are not produced by SSβG-WT even under varying reaction times.

B1: WT: Wild type β-glycosidase from Sulfolobus solfataricus (SEQ ID NO: 2), recombinant with N-terminal His6-tag (protein, listed as Sulfolobus solfataricus)
chain: MYSFPNSFRFGWSQAGFQSEMGTPGSEDPNTDWYKWVHDPENMAAGLVSGDLPENGPGYWGNYKTFHDNAQKMGLKIARLNVEWSRIFPNPLPRPQNFDESKQDVTEVEINENELKRLDEYANKDALNHYREIFKDLKSRGLYFILNMYHWPLPLWLHDPIRVRRGDFTGPSGWLSTRTVYEFARFSAYIAWKFDDLVDEYSTMNEPNVVGGLGYVGVKSGFPPGYLSFELSRRHMYNIIQAHARAYDGIKSVSKKPVGIIYANSSFQPLTDKDMEAVEMAENDNRWWFFDAIIRGEITRGNEKIVRDDLKGRLDWIGVNYYTRTVVKRTEKGYVSLGGYGHGCERNSVSLAGLPTSDFGWEFFPEGLYDVLTKYWNRYHLYMYVTENGIADDADYQRPYYLVSHVYQVHRAINSGADVRGYLHWSLADNYEWASGFSMRFGLLKVDYNTKRLYWRPSALVYREIATNGAITDEIEHLNSVPPVKPLRH
modifications: N-terminal His6 tag
[1]
  Km: 46 ± 17 µM
  kcat: 140 ± 20 s⁻¹
[2]
  Km: 11 ± 2 µM
  kcat: 80 ± 2 s⁻¹
[3]; 4-MUMan
  Km: 36 ± 9 µM
  kcat: 1.8 ± 0.2 s⁻¹
[3]
  β-D-mannoside activity, turnover relative to β-D-glucoside: approx. 1%
[4]; 4-MUXyl
  Km: 130 ± 30 µM
  kcat: 3.8 ± 0.3 s⁻¹
[4]
  turnover (kcat) towards xyloside compared with β-D-glucoside: approx. 3%
[5]; 45 min
  Yield of Products, product 1 (β-glycoside of Glc): 40%
  Yield of Products, product 2 (β-glycoside of Gal): 33%
  Yield of Products, product 3 (β-glycoside of Man): 2%
  Yield of Products, product 4 (β-glycoside of Xyl): 3%
  Yield of Products, product 5: 14%
  Yield of Products, product 6: 8%
[5]; 4 h
  Yield of Products, product 3 (β-glycoside of Man): 8%
  Yield of Products, product 4 (β-glycoside of Xyl): 20%
  Yield of Products, product 5: 33%
  Yield of Products, product 6: 30%
  Yield of Products, product 7: 4%
  Yield of Products, product 8: 5%
